The source of these data is patent publication US20250057968A1, “ANTI-DLL3 ANTIBODY AND PHARMACEUTICAL USE THEREOF, AND ANTIBODY-DRUG CONJUGATE CONTAINING ANTI-DLL3 ANTIBODY” (Jiangsu Hengrui Pharmaceuticals Co., Ltd., priority 2021, published 2025).

For orientation: EC50 means the concentration at which the effect is half-maximal. What is called Kd is the equilibrium constant for the complex coming apart.

Assay [1] has as its target T1, Human DLL3 full-length protein on cells (human, UniProt Q9NYJ7 27-618).
T1 sequence: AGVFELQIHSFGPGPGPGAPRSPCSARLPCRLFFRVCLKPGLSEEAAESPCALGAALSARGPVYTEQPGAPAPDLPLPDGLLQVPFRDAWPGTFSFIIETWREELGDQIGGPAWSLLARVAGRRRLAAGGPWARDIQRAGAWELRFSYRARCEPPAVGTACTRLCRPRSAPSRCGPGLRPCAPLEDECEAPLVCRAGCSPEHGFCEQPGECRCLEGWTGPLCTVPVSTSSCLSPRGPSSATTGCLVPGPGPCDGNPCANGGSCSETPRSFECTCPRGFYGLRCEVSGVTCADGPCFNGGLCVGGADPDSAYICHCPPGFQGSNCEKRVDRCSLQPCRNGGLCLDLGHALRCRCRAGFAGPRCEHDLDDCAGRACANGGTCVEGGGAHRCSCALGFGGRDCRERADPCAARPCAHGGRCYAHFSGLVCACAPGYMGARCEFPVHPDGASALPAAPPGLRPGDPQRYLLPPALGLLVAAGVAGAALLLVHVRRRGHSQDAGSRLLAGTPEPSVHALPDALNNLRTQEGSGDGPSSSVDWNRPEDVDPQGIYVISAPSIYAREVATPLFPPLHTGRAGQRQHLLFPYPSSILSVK
As to the kind of experiment: cell-based or functional assay.

Assay [2] concerns the target T2, Cynomolgus monkey DLL3 full-length protein on CHO-s cells (cynomolgus monkey, UniProt Q9NYJ7 27-618 (human entry)).
T2 construct: also called cynoDLL3/CHO-s
T2 chain: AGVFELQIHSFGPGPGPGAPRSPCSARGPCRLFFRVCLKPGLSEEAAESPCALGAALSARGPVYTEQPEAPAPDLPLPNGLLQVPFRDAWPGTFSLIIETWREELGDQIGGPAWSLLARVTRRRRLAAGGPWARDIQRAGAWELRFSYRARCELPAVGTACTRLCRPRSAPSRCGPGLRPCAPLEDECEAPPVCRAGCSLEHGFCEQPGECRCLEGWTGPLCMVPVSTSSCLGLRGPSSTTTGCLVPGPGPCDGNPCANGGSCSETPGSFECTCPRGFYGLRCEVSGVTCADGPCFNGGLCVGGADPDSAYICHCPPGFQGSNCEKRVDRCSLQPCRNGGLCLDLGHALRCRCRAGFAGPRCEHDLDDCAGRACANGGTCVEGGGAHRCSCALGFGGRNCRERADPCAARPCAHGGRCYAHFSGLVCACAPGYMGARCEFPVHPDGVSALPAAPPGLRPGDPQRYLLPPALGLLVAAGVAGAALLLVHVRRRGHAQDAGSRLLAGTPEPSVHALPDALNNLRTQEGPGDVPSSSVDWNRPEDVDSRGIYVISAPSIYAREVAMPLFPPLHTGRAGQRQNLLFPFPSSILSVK
As to the kind of experiment: FACS on cynoDLL3/CHO-s cells. As for the experimental part:
Cells of the DLL3-expressing small cell lung cancer cell lines H1184 (ATCC, Cat. No. CRL-5858), DLL3/H82, cynoDLL3/CHO-s, and RatDLL3/CHO-s were suspended at 1×10^6/mL in FACS buffer (1% BSA+pH 7.4 PBS), and the cell suspensions were added to a 96-well round-bottom plate (Corning, 3795) at 100 μL/well. The plate was centrifuged at 300 g for 5 min, and the supernatant was removed. Different concentrations of test antibodies were added at 100 μL/well. The plate was incubated in the dark in a refrigerator at 4° C. for 1 h. After 3 washes by centrifugation at 300 g, working concentrations of APC anti-human IgG Fc (BioLegend, 410712) or PE F(ab′)2-goat anti-human IgG (invitrogen, H10104) were added. The plate was incubated in the dark in a refrigerator at 4° C. for 40 min. After 3 washes by centrifugation at 300 g, the geometric mean fluorescence intensity was measured on an Invitrogen flow cytometer, and the EC50 values of the antibodies in binding to DLL3-expressing cells were calculated.

For assay [3], the target named is cynomolgus monkey DLL3 (KACTUS, DLL-RM103) (cynomolgus monkey). As to the kind of experiment: SPR (Biacore 8K), antibody captured on Protein A chip, 1:1 fit. In general terms: SPR reads the build-up and loss of mass on a sensor chip optically.
Assay [4] concerns the target T3, Human DLL1 full-length protein on CHO-s cells (human, UniProt O00548 18-723).
T3 construct: also called human DLL1/CHO-s
T3 sequence: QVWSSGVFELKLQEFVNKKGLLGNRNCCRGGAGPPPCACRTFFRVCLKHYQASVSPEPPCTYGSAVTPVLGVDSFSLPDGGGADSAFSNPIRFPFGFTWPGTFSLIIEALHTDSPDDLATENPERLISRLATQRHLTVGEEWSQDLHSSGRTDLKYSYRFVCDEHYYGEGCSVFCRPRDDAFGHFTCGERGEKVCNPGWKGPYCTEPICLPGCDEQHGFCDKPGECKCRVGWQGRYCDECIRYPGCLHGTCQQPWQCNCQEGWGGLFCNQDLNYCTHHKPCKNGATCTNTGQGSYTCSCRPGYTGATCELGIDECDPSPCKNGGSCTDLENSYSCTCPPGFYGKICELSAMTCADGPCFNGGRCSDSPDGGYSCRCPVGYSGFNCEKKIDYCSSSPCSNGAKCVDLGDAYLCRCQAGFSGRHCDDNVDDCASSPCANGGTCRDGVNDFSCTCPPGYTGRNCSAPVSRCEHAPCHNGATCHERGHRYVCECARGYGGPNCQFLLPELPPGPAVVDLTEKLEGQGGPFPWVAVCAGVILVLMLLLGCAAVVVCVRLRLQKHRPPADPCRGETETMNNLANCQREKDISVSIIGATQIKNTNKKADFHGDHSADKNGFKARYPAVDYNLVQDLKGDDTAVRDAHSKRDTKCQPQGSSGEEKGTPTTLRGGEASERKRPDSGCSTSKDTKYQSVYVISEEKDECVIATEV
As to the kind of experiment: FACS on human DLL1/CHO-s cells. The method, then: Stably transfected human DLL1/CHO-s and human DLL4/CHO-s cells were suspended at 1×10⁶/mL in FACS buffer (containing 1% BSA and pH 7.4 PBS), and the cell suspensions were added to a 96-well round-bottom plate (Corning, 3795) at 100 µL/well. The plate was centrifuged at 300 g for 5 min, and the supernatant was removed. Test antibodies were added at 100 μL/well, and the plate was incubated in the dark in a refrigerator at 4° C. for 1 h. After 3 washes by centrifugation at 300 g, working concentrations of PE F(ab′)2-goat anti-human IgG Fc secondary antibody (invitrogen, H10104) were added. The plate was incubated in the dark in a refrigerator at 4° C. for 40 min. After 3 washes by centrifugation at 300 g, the geometric mean fluorescence intensity was measured on an Invitrogen flow cytometer.

B1: Hu100 (antibody, human IgG1, kappa, V domains shown)
VH: EVQLVESGGGLVKPGGSLRLSCAASGFTFSDSGMHWIRQAPGKGLEWVSYISSGSSTIHYADTVKGRFTISRDNAKNSLYLQMNSLRAEDTAVYYCASPLYYYGRSYNAVAYWGQGTTVTVSS
VL: DIQMTQSPSSLSASVGDRVTITCHASQNINVWLSWYQQKPGKVPKLLIYKASDLHTGVPSRFSGSGSGTDFTLTISSLQPEDVATYYCQQGQSYPLTFGGGTKVEIKR
notes: also called hAb100L1H1
Consider B1, for which, in assay [1], the “IC50 (nM), cell killing caused by endocytosis of antibodies (DT3C, DMS53/DLL3 cells)” value came to 1.47 nM and the “Imax, cell killing caused by endocytosis of antibodies (DT3C, DMS53/DLL3 cells)” value is 86.1. In assay [2], this molecule had an EC50 of 0.55 nM and an Emax of 2080. Moreover, in assay [3], the Kd was 1.11 nM. Further, the binding result in assay [4] is “no binding”.

B2: Hu6 (antibody, human IgG1, kappa, V domains shown)
VH: EVQLVQSGSELKKPGASVKVSCKASGYTFTDYYMNWVRQAPGQGLEWMGIINPYSGVTIYNHKFKGRFALSVDKSSNTAYLQISSLKAEDTAVYYCARQDSLLDYAMDYWGQGTTVTVSS
VL: DIQMTQSPSSLSASVGDRVTITCHASQGISGNMGWLQQKPGKAPKGLIYHGANLEDGVPSRFSGSGSGADYTLTISSLQPEDFADYYCVQYAQFPYTFGGGTKVEIKR
notes: also called hAb6L4H12
With B2, in assay [1], the “IC50 (nM), cell killing caused by endocytosis of antibodies (DT3C, DMS53/DLL3 cells)” value came to 0.56 nM and the “Imax, cell killing caused by endocytosis of antibodies (DT3C, DMS53/DLL3 cells)” value is 87.2. In assay [2], the EC50 is 0.32 nM and the Emax worked out at 1760. The molecule further displayed a Kd in assay [3] of 1.31 nM. Moreover, in assay [4], the binding result is recorded as “no binding”.
